Molecular target: T1, ArcR (Staphylococcus aureus NCTC8325) (UniProt Q2FUY1)
T1 sequence: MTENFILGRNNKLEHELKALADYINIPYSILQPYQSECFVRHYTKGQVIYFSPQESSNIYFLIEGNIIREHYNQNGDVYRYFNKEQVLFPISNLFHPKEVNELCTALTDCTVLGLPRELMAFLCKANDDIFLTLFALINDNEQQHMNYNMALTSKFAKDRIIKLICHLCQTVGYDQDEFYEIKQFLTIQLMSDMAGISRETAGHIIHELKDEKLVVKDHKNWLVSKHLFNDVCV
Assay: EMSA

| Sequence | binding |
| --- | --- |
| ACACCAGTTAACTTTTTGTCTTGTTGTGACATAGTCATCCCTCCACAATTTATAATAATTATAATTTAATACATATTATAATTTAACCCCATCAAAATTACAATTAAACATGCTCAAGATGATTAAAAAATCAGAAAATTTTAATTTTTTCGCTTTACAGTACTAAATAGTTATTGAATAGTACACTTAAAAAGCTTACAATAATGGGTATATTTAAATAGATGGGAGACTAAATATGGAAGAT (double strand) [katA promoter region] | binds |
| AGCGCGTGTTGTTATGTCGCGAATGGTAATCTTTTCTAAATCTTTTTCTTGTAGTAATTTAGTGAACGCTTGTTTAATGGAGGACTTTGTCTTTCTAATTCGCCTATCTTCTTTCAAAAATAAATCAACCTCCTTGTGTTATTGAACAATGTGGGTGTATTTGTCTATTAATGAACGTATTGATGAACATTGTGTATTGTTTATTCCCACTTACATATTATAATAGACAACATGCGAAATATTCAACACATTGTCTAATAAGGAGGT (double strand) [tetA promoter region] | no binding |

— paper PMC9998937
